Test results taken from publication PMC3294146.

Tests used:
[1] = target: Co-hArgI-C^PEG-20K (hArgI-C conjugated at the N-terminal Cys to 20 KDa PEG-maleimide) (human); assay: SEC
[2] = target: human Arginase I with an engineered N-terminal Cys residue (hArgI-C), not PEGylated (human); assay: SEC

| Substance | stoichiometry N [1] | percent dimeric [2] [%] | percent monomeric [2] [%] |
| --- | --- | --- | --- |
| Co-hArgI-C^PEG-20K (hArgI-C conjugated at the N-terminal Cys to 20 KDa PEG-maleimide) (enzyme) | 3 | – | – |
| human Arginase I with an engineered N-terminal Cys residue (hArgI-C), not PEGylated (enzyme) | – | 10 | 90 |
